Laboratory results taken from the nanobody polyreactivity screen of Harvey et al. (2022).

Assay: yeast display, Sf9 membrane polyspecificity reagent, FACS + sequencing; frameworks hold sequencing errors
How it was run: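 Galactose induction of a Saccharomyces cerevisiae BJ5465 synthetic nanobody display library ran 36–48 hours. The cells were then stained for 1 hour at 4 °C with 10% biotinylated, detergent-solubilized Sf9 membrane reagent, pulled down on streptavidin microbeads and FACS-sorted into low and high (top ~1%) gates on expression and reagent-binding fluorescence. Labels for polyreactivity follow the gate of origin.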

Sequence	polyreactivity (PSR sort gate)
QVQLVESGGGLVQAGGSLRLSCAASGRIFDLNAMGWYRQAPGKERELVATITRSGVSTYYADSVKGRFTISRDNAKNTVYLQLYSLKPEDTAVYYCAKDRYGWGYDYWGQGTQVTVSS	low polyreactivity
QDQLVESGGGLVQAGGSLRLSCAASGSIFAWNAMGWYRQAPGKERELVAVITSGGSTNYADSVKGRFTISRDNAKNTVYLQMNSLKPEDTAVYYCAARSWVYSVIGDYWGQVTQVTVSS	low polyreactivity
QVQLVESGGGLVQAGGSLRLSCSASGRTFTPYAMGWYRQAPGKEREFVAAISIVGRTKYADSVKGRFTISPDNAKNTFYFQMNSLKPEDTAVYYCNAQDSRDRKFYWGYTRGHWGQGTQVTVSS	low polyreactivity
QVQLVESGGRLVQAGGSLRLSCAASGFTFYGYAMGWYRQAPGKERELVAAISRGGGRTYYADSVKGRFTISRDNAKNTVYLQMNSLKPEDTAVYYCAAQGGSKTSSRSYGYWGQGTQVTVSS	high polyreactivity
QVQLVESGGGLVQAGGSLRLSCAASGGIFLVYAMGWYRQAPGKERELVAAITPGGSTYYADSVKGRFTISRDNAKNTVYLQMNSLKPEDTAVYYCAKALYRREYSSGGYYRFDYWGQGTQVTVSS	high polyreactivity
QVQLVESGGGLVQAGGSLRLSCAASGSTFGLYGMGWYRQAPGKERELVAAITYSGGGTYYADSVKGRFTISRDNAKNTVYLQMNSLKPEDTAVYYCAAEYYSSITGWYYYWGQGTQVTVSS	low polyreactivity
QVQLLESGGGLVQAGGSLRLSCAASGSNFSSYAMGWSRQAPGTERELVASISRRGGSTYYADSVKGRFTISRDNAKNTVYLQMNSLKPEDTAVYYCNASGGPYRYYYWGQGTQVTVSS	low polyreactivity
QVQLVESGGGLVQAGGSLRLSCAASGSIFSRNAMGWYRQAPGKERELVASMSWRGGSTNYADSVKGRFTISRDNAKNTVYLQMNSLKPEDTAVYYCNAPYRHQPGGGYWGQGTQVTVSS	low polyreactivity
QVQLVESGGGLVQAGGSLRLSCAASGRNFFRYAMGWYRQAPGKERELVAAISRSGGRTYYADSVKGRCTLSRDNAKNTVFLQMNSLNREDTAVYYCAVRYRQYSQTVASDYGYWGPGTQVTVSS	high polyreactivity
QVQLVESGGGLVQAGGSLRESCAASGSISAEYVMGWYRKAPGKERELVAAISVSAGTTYYADSVKGRFTISRDNAKTTVYLHMNSLKPEDTAVYYCAATDSYYWLYYYGYSPCNDYWGQGTQVTVSS	low polyreactivity
QVQLVESGGGLVQAGGSLRLSCAASGRTFGPYAMGWYRQAPGKEREFVAAISYSGGSTYYADSVKGRFTISRDIAKNTVYLQMNSLKPEDTAVYYCAARLPSDHRPVVRGGYEMGYWGQGTQVTVSS	low polyreactivity
QVQLVESGGGLVQAGGSLRLSFAASGIIFVGYAMGWYRQAPGKEMELVAAISTSSRTYYADSVKGRFTISRDNAKNTVYLQMNIQKPEDTAVYYCNARGTRWYYRHEYWGQGTQVTVSS	high polyreactivity
QVQLVESGGVLVQAVASLRVSCAASGRILDYNTMGWYRPAPGKERELVAAISFSGGRTYYADSVKGRFTISRDNAKNTFYLQMNSLKPEDTAVYYCAATVGAASRYYYWGQGSQVTVSS	high polyreactivity
QVQLEESGGGLVHAGGSLRLSCAASGSTFGYYTMGWYRQAPRKERELVAAITWSGGSTYYADSVKGRFTISLDNAKNTVYLQMNSLKPEDSAVYYCAADDYWTPFGYWGQGTQVTVSS	low polyreactivity
QVQLVESGGGLVQAGGSLRLSCAASGRIFYANTMGWYRQAPGKERELVAAITGDGSTYADSVKGRFTISRDNAKNTVYLQMNSLKPEDTAVFYCAAEVDYSAFDYWGQGTQVTVSS	low polyreactivity
QVQLVESGGGLVQAGGSLRLSCAASGFIFGGYPMGWYRQAPGKERELVAAITIRGGSTSYADSVKGRFTISRDIAMNTVYLQMNSLKPEDSAVYYCNRQSRNAGGYYWGQGTQVTVSS	low polyreactivity
QVQLVESGGRLVQAGGSLRLSGAASGFTFGRNAKGWYRPAPGKERELVASIDWSGGSTYYADSVKGRFTISRDNAKNTFFLQMNSLKPEETAVYYCAVGPNSVGNRSYGFDYWGQGTQVTVSS	low polyreactivity
QVQLVESWGGLVQAGGSLRLSCAASGSTFDYNAMGWYRQAPGKERELVAAITSTGGNTYYADSVKGRFTISRDNAKNTVYLQMISMKPEDTAVYYCNKDVARYPYGKFDYWGQGTQVTVSS	low polyreactivity
QVQLVESGGGLVQAGGSLRLSCAASGSTVDRYAMGGYRQAPGKERELVAAITSSGGSTYDADSVKGRFTISRDNAKNTVYVQMNSLKPEDTAVYYCNALITYSTDYWGQGTQVTVSS	low polyreactivity
QVQLVESGGGLVQAGGSLRLSCAASGITFDYYAMGWYRQAPGKERELVASISSDSSTYYADSVKGRFTISRDNAKNTVYLQMNSLKPEDTAVYYCNAGDSEYTYYGYYAFDYWGQGSQVTVSS	low polyreactivity
QVQLVESGGGLVQAGCSLRLSCAASGRTFRYYAMGWYRQAPGKERELVAAISWRGGSTYYADSVKGRFTISRDNAKNTVYLQMNSLKPEDTAVYYCAAGILFGHYDYWGQGTQVTVSS	high polyreactivity
QVQLVESGGVLVQAGCSLRLSCAAYGFTFASYAMGWYRQAPGKERELVAAISWGTVSTYYADSVKGRFTISRDNAMITVYLQMNSLRREDTAVYFCDAQRYTRLRRHGYWGLGTQVTVSS	high polyreactivity

Sequence	polyreactivity (PSR sort gate)
QVQLVESGGSLVQAGGSLRLSCAASGRTFGYNGMGWYRQAPGKERELVAAITNDGGNTNYADSVKGRFTISRDNAKNTVYLQMNSLKPEDTAVYYCNADRTQDRNPYTYATFDYWGQGTQVTVSS	low polyreactivity
QVQLVESVGGLVQAGGSLRLSCASSVRTFYRYAMGWYRQAPGKERELVAAISRGGRTNYADSVKGRFTISRDNAKNTVYLQMNSLKPEDTAVYYCAVSNYGALYDYWGQGTQVSVSS	high polyreactivity
QVQLVESGGGLVQAGGSLRLSCAASGFTFFANAMGWYRQAPGKERELVAAISISDATTYYADSVKGRFTISRDNAKNTVYLQMNSLKPEDTAVYDCAAEPEYIAGPLDYWGQGTQVTVSS	high polyreactivity
QVQLVESGGGLVQAGGSLRLSCAASGSIFVTNAMAWYSQAPGKERELVAAISWRGGSTYYADSVKGRFTISRDNAKNTVYLQMNSLKPEDTAVYYCNTYHPYWGSGFDYWGQGTEVTVSS	low polyreactivity
QVQLVESGGGLVQAGGSLRLSCAASGLTFPVYTMGWYRQAPGKEREFVAAITYNGGRTYYADSVKGRFTISRDNAKNTVYLQMNSLKPEDTAVYYCAAEYGTYFVRYYAGASYRYGYWGQGTQVTVSS	low polyreactivity
QVQLVESGGGLVQAGGSLRLSCAASGRTFRPNAMGWYRQAPGKERELVASITRRGGTTYYADSVKGRFTISRDNAKNTVYLQMYSLKPEDSAVYYCNAPPGYSSTRNGYWGQGTQVTVSS	high polyreactivity
QVQLVESGGGLVQAGGSLRLSCAASGSTFSKYAMGWYRQAPGKERELVAAITWRASTYYADSVKGRFTISRDNAKNTVYLQMNSLKPEDTAVYYCAVRQSQRGGTSSNTSNDYWGQGTQVTVSS	high polyreactivity
QVHLVESGGGVVQAGGSLRLSCAASGRIFPSYDRGWYRQAPGKERELVATISSRGDSTYYADSVKGRFTISRDNAKNTVYLQMNSLKPEDTAVYYCAAERPFWEYDYWGQGTQVTVSS	low polyreactivity
QVHLVESGGGLFQAGGSLRLSCAASGSTFTDYDMGWYRQAPGKDRELVASITSGGSTNYADSVKGRFTISRDNAKNTVYLQMNSLKPEDTAVYYGAAADADRKYDYWGQGTQVTVSS	low polyreactivity
QDQLVESGGGLVQAGGSLRLSCAASGSTLAYNAKGWYRPAPGKERELVAGIRGSGGSTYYADSVKGRFTISRDNAKNTVYLLMNSLKPEDTAVYDCAAAGYYYYLYAAYYYWGQGTQVTVSS	low polyreactivity
QVQLVESGGGLVQAGGSLRLSCAASGSTFRRNAMGWYRQAPGKERELVAAISSSGGSTYYADSVKGRFTISRDNAKNTVFLQMNSLKPEDTAVYYCAAGYPTLRGYYYWGQGTQVTVSS	low polyreactivity
QVQLVESGGGLVQAGGCLRLSCAASGRILYYYAMGWYRQAPGKERELVAAINSSGGSTYYADSVKGRFTISRDNAKNTVYLQMNSLKPEDTAVFYCAALRGNVLWYPPSYFRYDYWGQGTQVTVSS	high polyreactivity
QVQLVESGGGLVQAGGSLRLSCAASGLSFSVYAMGWYRQAPGKERELVAAITRNGGSTYYADSVKGRFTISRDTAKNTVYLQMNSLKPEDSAVYYCAAVASSKLYDYWGQGTQVTVSS	low polyreactivity
QVQLVESGGGLVQAGGSLRLSCAASGFILKYNAMGWYRQAPGKERELVAAISSNGGRTYYADSVKVRFTISRDNAKNTVYLQMKSLKPEDTAVDYCAAGRLQPVLGGYWGQGSQVTVSS	low polyreactivity
QVQLVESGGGLVQAGGSLRLSCAPSGRIFSYNTMGWYRQAAGKERELVAAISSSGGSTYYADSVKGRFTISRDNAKNTFYLQMNSLKPEDTALYYCNAVGRFSTRREYWGQGTQVTVSS	high polyreactivity
QVQLVESGGGLVQAGGSLRLSCAASGSIFRPNAMGWYRQPPGKERELVALITRGGSTNYADSVKGRFTISRDNAKNTVYLQMNSLKPEDTAVYYCAVDLWYPPVWVRVSEFDYWGQGTQVTVSS	low polyreactivity
QVQLVESGRGLVQAGGSLRLSCAASGSILYSYAMGWYRQAPGKERELVAAISSSGGTNYAASVKGSFTISRDNAKNTVYLQMNSLKPEDTEVYYCNADVLDGGYDYWGQGTQVTVSS	low polyreactivity
QVQLVESGGGLVQAGGSLRLSCAASGITFISYVMGWYRQAPWKERELLAAISKRGGSTYYADSVKGRFTISRDNAKNTVYLQMNSLKPEDTAVYYCAAKTIPWSVGYDYWGQGTQVTVSS	high polyreactivity
QVQLVESGGGLLQAGGSLRLSCAASGSTFGFYALGWFRQAPGKERELVAAISSGGTSTYYADSVKGRFTISRDNAKTTVYLQMNSVIPEDTAVYYCNSDTFQYPSTYDYWGQGTQVTVSS	low polyreactivity
QVQLVESGGGLDQAGASLRLSCAASGSIFVPYTMGWYRQAPGKERELVASISYSGGTTYYADSVKGRFTISRDNAKYTVYLQMNSLKPEDTAVYYCAADWDDSYSYRRYRHYDYWGQGTQVTVSS	low polyreactivity
QLQLVESGGGLVQAGGSLRLSCAASGLTFSYYAMGSYRQAPGKERELVAAITSSGGNTYYADSVKGRFTISRDNANNTVYLQMNSMKPEDTAVYYCAAERYQSFCYGKRPRRPRYDYWGLGTQVTVSS	high polyreactivity
